Read-outs that look alike come from different tables or passages of the source. Each block holds one substance with its values, some of them ahead of it.
Assays:
Assay in all cases: SEC
[1] = biological target: Human S100A7 (psoriasin), oxidized, with Cys47–Cys96 disulfide bond (human) (UniProt P31151)
[2] = biological target: S100A7(C47A)(C96A) homodimer (human) (UniProt P31151)
[3] = biological target: S100A7(C47A)(C96A) homodimer (human) (UniProt P31151); remark: listed apart in the source
[4] = biological target: S100A7(C47S)(C96S) homodimer (human) (UniProt P31151)
[5] = biological target: S100A7(C47S)(C96S) homodimer (human) (UniProt P31151); remark: listed apart in the source
[6] = biological target: Human S100A7 (psoriasin), reduced, with Cys47 and Cys96 as free thiols (human) (UniProt P31151)

stoichiometry N [1]: 2
Substance: Human S100A7 (psoriasin), oxidized, with Cys47–Cys96 disulfide bond (from UniProt P31151 1-101) (natural protein)

stoichiometry N [2]: 2
stoichiometry N [3]: 2
Substance: S100A7(C47A)(C96A) homodimer (from UniProt P31151 1-101) (natural protein)

stoichiometry N [4]: 2
stoichiometry N [5]: 2
Substance: S100A7(C47S)(C96S) homodimer (from UniProt P31151 1-101) (natural protein)

stoichiometry N [6]: 2
Substance: Human S100A7 (psoriasin), reduced, with Cys47 and Cys96 as free thiols (from UniProt P31151 1-101) (natural protein)

Reference: article PMC5748159
